Reference: IntAct's records for PubMed 19804848

B1: Syntaxin-binding protein 2 (Homo sapiens), Q15833 (parent)
chain: MAPSGLKAVVGEKILSGVIRSVKKDGEWKVLIMDHPSMRILSSCCKMSDILAEGITIVEDINKRREPIPSLEAIYLLSPTEKSVQALIKDFQGTPTFTYKAAHIFFTDTCPEPLFSELGRSRLAKVVKTLKEIHLAFLPYEAQVFSLDAPHSTYNLYCPFRAEERTRQLEVLAQQIATLCATLQEYPAIRYRKGPEDTAQLAHAVLAKLNAFKADTPSLGEGPEKTRSQLLIMDRAADPVSPLLHELTFQAMAYDLLDIEQDTYRYETTGLSEAREKAVLLDEDDDLWVELRHMHIADVSKKVTELLRTFCESKRLTTDKANIKDLSQILKKMPQYQKELNKYSTHLHLADDCMKHFKGSVEKLCSVEQDLAMGSDAEGEKIKDSMKLIVPVLLDAAVPAYDKIRVLLLYILLRNGVSEENLAKLIQHANVQAHSSLIRNLEQLGGTVTNPGGSGTSSRLEPRERMEPTYQLSRWTPVIKDVMEDAVEDRLDRNLWPFVSDPAPTASSQAAVSARFGHWHKNKAGIEARAGPRLIVYVMGGVAMSEMRAAYEVTRATEGKWEVLIGSSHILTPTRFLDDLKALDKKLEDIALP
partner: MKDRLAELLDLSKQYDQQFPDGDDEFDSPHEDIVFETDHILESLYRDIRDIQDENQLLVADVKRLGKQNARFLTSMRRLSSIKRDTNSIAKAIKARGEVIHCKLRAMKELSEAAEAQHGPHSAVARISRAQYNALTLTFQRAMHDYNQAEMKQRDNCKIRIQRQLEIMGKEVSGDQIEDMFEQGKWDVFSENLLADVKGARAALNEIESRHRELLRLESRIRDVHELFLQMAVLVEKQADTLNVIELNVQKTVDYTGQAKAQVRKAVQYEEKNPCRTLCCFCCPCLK

Variants of: B1
Settings: with stx11_human STX11, O75558

Effect of a mutation on the interaction, disrupting interaction strength:
P477L
R405W
R405E
R292H
